Assay results as given in paper PMC8884915, “Electrostatic sheathing of lipoprotein lipase is essential for its movement across capillary endothelial cells” (The Journal of Clinical Investigation, 2022).

B1: soluble WT mouse GPIHBP1 (residues 23-198) (domain or fragment, UniProt Q9D1N2 23-198, looked up)
chain: QEDGDADPEPENYNYDDDDDEEEEEETNMIPGSRDRAPLQCYFCQVLHSGESCNQTQSCSSSKPFCITLVSHSGTDKGYLTTYSMWCTDTCQPIIKTVGGTQMTQTCCQSTLCNIPPWQNPQVQNPLGGRADSPLESGTRHPQGGKFSHPQVVKAAHPQSDGANLPKSGKANQPQG
modifications: sulfated tyrosines in the acidic domain (Tyr35, Tyr37): one half of the molecules contained 2 sulfated tyrosines, the other half only 1
notes: lacks the carboxyl-terminal signal peptide that triggers the addition of a GPI anchor; Homogeneous and monodisperse preparation after removal of low levels of oligomers by SEC; also called WT-GPIHBP1; purified WT-GPIHBP1
B2: mouse lipoprotein lipase (LPL), recombinant, purified (enzyme)
chain: ADAGRDFSDIESKFALRTPEDTAEDTCHLIPGLADSVSNCHFNHSSKTFVVIHGWTVTGMYESWVPKLVAALYKREPDSNVIVVDWLYRAQQHYPVSAGYTKLVGNDVARFINWMEEEFNYPLDNVHLLGYSLGAHAAGVAGSLTNKKVNRITGLDPAGPNFEYAEAPSRLSPDDADFVDVLHTFTRGSPGRSIGIQKPVGHVDIYPNGGTFQPGCNIGEAIRVIAERGLGDVDQLVKCSHERSIHLFIDSLLNEENPSKAYRCNSKEAFEKGLCLSCRKNRCNNLGYEINKVRAKRSSKMYLKTRSQMPYKVFHYQVKIHFSGTEDGKQHNQAFEISLYGTVAESENIPFTLPEVSTNKTYSFLIYTEVDIGELLMMKLKWISDSYFSWPDWWSSPSFVIERIRVKAGETQKKVIFCAREKVSHLQKGKDSAVFVKCHDKSLKKSG

Experiments:
[1] = target: T1, mouse lipoprotein lipase (LPL), recombinant, purified (mouse, UniProt P11152 28-474); assay: SPR; Biacore T200; mouse LPL captured on the chip with immobilised antibody 27A; WT-GPIHBP1 (0.25-4 nM) or S-GPIHBP1 (2-32 nM) injected, single-cycle kinetics, 50 μL/min, 20°C; 10 mM HEPES pH 7.4, 150 mM NaCl, 4 mM CaCl2, 0.05% P20, 0.2 mg/mL BSA; conditions: both partners purified
T1 construct: lipoprotein lipase, mouse; expressed in Drosophila S2 cells; also called mouse LPL; purified mouse LPL; source: Drosophila S2 cells, purified to homogeneity by heparin-Sepharose chromatography
T1 sequence (looked up): B2 chain

[2] = target: B2; assay: SPR; 150 mM NaCl
[3] = target: B2; assay: SPR; 750 mM NaCl
[4] = target: B2; assay: SPR; 750 mM NaCl
[5] = target: B2; assay: SPR; 150 mM NaCl
[6] = target: T2, soluble mouse S-GPIHBP1 (acidic stretch and adjacent tyrosines replaced with an S-protein tag) (mouse, UniProt Q9D1N2 23-198, residues 32 to 48 replaced with the S-protein tag (KETAAAKFERQHMDS)); assay: SPR; 150 mM NaCl
T2 sequence: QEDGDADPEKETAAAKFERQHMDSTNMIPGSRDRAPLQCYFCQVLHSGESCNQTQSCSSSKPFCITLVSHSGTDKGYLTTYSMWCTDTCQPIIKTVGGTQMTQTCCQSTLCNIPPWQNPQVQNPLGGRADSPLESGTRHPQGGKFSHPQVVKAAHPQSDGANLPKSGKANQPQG

[7] = target: T2, soluble mouse S-GPIHBP1 (acidic stretch …); assay: SPR; 750 mM NaCl
[8] = target: T2, soluble mouse S-GPIHBP1 (acidic stretch …); assay: SPR; LPL bound to heparin DP4, 150 mM NaCl
[9] = target: T2, soluble mouse S-GPIHBP1 (acidic stretch …); assay: SPR; LPL bound to heparin DP4, 150 mM NaCl; remark: listed apart in the source
[10] = target: T2, soluble mouse S-GPIHBP1 (acidic stretch …); assay: SPR; 750 mM NaCl; remark: listed apart in the source
[11] = target: T2, soluble mouse S-GPIHBP1 (acidic stretch …); assay: SPR; 150 mM NaCl; remark: listed apart in the source

| Binder | binding result [1] | koff [2] [s⁻¹] | koff [3] [s⁻¹] | Kd [4] [nM] | Kd [5] [nM] | koff [6] [s⁻¹] | koff [7] [s⁻¹] | Kd [8] [nM] | koff [9] [s⁻¹] | Kd [10] [nM] | Kd [11] [nM] |
| --- | --- | --- | --- | --- | --- | --- | --- | --- | --- | --- | --- |
| B1 | binds | 0.0125 | 0.0143 | 20 | 0.93 | – | – | – | – | – | – |
| B2 | – | – | – | – | – | 0.0167 | 0.0495 | 290 | 0.0211 | 183 | 107 |
